According to US20240166739A1 (KISOJI BIOTECHNOLOGY, published 2024):

Tests used:
[1] = target: T1, human PD-1 on CHO-PD1 cells (human, UniProt Q15116 25-288); experiment: Flow cytometry, 20 µg/mL, CHO-PD1 against CHO parental cells (FIG. 10)
T1 construct: whole, on cells; also called CHO-PD-1 cell line
Procedure: The binding of binding agents to cells was assessed by flow cytometry. […] Binding agents comprising anti-PD-1 antigen binding domain, were diluted in FACS staining buffer to 20 μg/mL and added and incubated with cells for 30 minutes on ice. The PD-1 antibody (clone EH12.2H7, Biolegend) was used as a positive control.

[2] = target: T2, recombinant human PD-1 protein (human, UniProt Q15116 25-167); experiment: ELISA on coated recombinant PD-1 (FIG. 9A)
T2 construct: Bought protein; also called human recombinant PD1 protein; PD-1 recombinant protein
T2 sequence (Q15116 25-167 limits assumed): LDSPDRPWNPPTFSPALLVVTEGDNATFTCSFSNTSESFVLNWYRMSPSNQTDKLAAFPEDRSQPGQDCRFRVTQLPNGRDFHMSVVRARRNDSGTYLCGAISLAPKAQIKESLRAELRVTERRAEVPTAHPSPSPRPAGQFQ
Procedure: (§1) The binding of binding agents comprising anti-PD-1 and -CD47 antigen binding domain to recombinant human or cynomolgous PD-1 (Cedarlane, Cat. No. HPLC-10377-H08H-100) or recombinant human or cynomolgous CD47 (Cedarlane, Cat. No. 12283-H08H-200 and 90869-C08H) was assessed by ELISA (FIG. 9A, FIG. 9B, FIG. 9C, FIG. 9D, FIG. 22, FIG. 23). […] The monoclonal anti-CD47 antibody (clone B6H12) was used as a positive control in CD47 binding assays (Biolegend, Cat. No. 401401).
(§2) Briefly, recombinant proteins were coated on 96-well plates. Plates were covered and left at 4° C. overnight. The next day, plates were washed once with PBS and blocked with blocking buffer for 1 hour at room temperature. Binding agents were tested at the indicated concentration, diluted in the blocking buffer, and incubated for 1 hour at 37° C. After incubation, plates were washed three times with washing buffer. Plates were incubated with anti-human-Fc-HRP (Sigma-Aldrich, Cat. No. APi 13P) diluted at 1:5000 for 1 hour at room temperature, then washed three times with PBS-T washing buffer. The signal was developed with SuperSignal™ ELISA Pico Chemiluminescent Substrate (Thermofisher, Cat. No. 37069). The plates were read on a SpectraMax™ i3x Multi-Mode Microplate Reader (Molecular Devices).

[3] = target: T2, recombinant human PD-1 protein; experiment: ELISA on coated recombinant PD-1, anti-human-Fc-HRP detection
Procedure: as §1, §2

T1 sequence (Q15116 25-288): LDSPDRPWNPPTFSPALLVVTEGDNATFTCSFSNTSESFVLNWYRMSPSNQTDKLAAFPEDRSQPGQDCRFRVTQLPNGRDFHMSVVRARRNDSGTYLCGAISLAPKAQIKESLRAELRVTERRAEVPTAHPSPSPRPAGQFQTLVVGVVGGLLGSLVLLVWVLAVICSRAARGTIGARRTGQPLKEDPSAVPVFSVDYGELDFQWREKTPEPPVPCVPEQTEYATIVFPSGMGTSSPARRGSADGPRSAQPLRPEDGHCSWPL

B1: KC036 (PD-1-specific binding agent; HEWL; PD1; HEWL) (Fc fusion)
chain: QVQLVESGGGSVQAGGSLRLSCAASGSTDSIEYMTWFRQAPGKAREGVAALYTHTGNTYYTDSVKGRFTISQDKAKNMAYLRMDSVKSEDTAIYTCGATRKYVPVRFALDQSSYDYWGQGTQVTVSSEPKSCDKTHTCPPCPAPELLGGPSVFLFPPKPKDTLMISRTPEVTCVVVDVSHEDPEVKFNWYVDGVEVHNAKTKPREEQYNSTYRVVSVLTVLHQDWLNGKEYKCKVSNKALPAPIEKTISKAKGQPREPQVYTLPPSREQMTKNQVSLTCLVKGFYPSDIAVEWESNGQPENNYKTTPPVLNSDGSFFLYSKLTVDKSRWQQGNVFSCSVMHEALHNHYTQESLSLSPGKAPAPAPAPAPKAQVQLQESGGGWVQPGGSLRLSCVASGFTFSRSSMSWHRQAPGKERDLVAIISSSGIITHYSDSVKGRFTISRDNAKDTVYLQMNSLKPEDTAVYVCNAVLDDDSGDYWGQGTQVTVSSGGGGSGGGGSGGGGSQVQLVESGGGSVQAGGSLRLSCAASGSTDSIEYMTWFRQAPGKAREGVAALYTHTGNTYYTDSVKGRFTISQDKAKNMAYLRMDSVKSEDTAIYTCGATRKYVPVRFALDQSSYDYWGQGTQVTVSS
notes: Anti-HEWL VHH - IgG1 hinge-CH2-mutated CH3 - rigid linker - KC009 anti-PD-1 VHH - (G4S)3 - anti-HEWL VHH; expressed as dimer; may comprise a His-tag or not
binding result [1]: binds | binding result [2]: binds

B2: KC035 (HEWL; HEWL; HEWL negative control binding agent) (Fc fusion)
chain: QVQLVESGGGSVQAGGSLRLSCAASGSTDSIEYMTWFRQAPGKAREGVAALYTHTGNTYYTDSVKGRFTISQDKAKNMAYLRMDSVKSEDTAIYTCGATRKYVPVRFALDQSSYDYWGQGTQVTVSSEPKSCDKTHTCPPCPAPELLGGPSVFLFPPKPKDTLMISRTPEVTCVVVDVSHEDPEVKFNWYVDGVEVHNAKTKPREEQYNSTYRVVSVLTVLHQDWLNGKEYKCKVSNKALPAPIEKTISKAKGQPREPQVYTLPPSREQMTKNQVSLTCLVKGFYPSDIAVEWESNGQPENNYKTTPPVLNSDGSFFLYSKLTVDKSRWQQGNVFSCSVMHEALHNHYTQESLSLSPGKAPAPAPAPAPKAQVQLVESGGGSVQAGGSLRLSCAASGSTDSIEYMTWFRQAPGKAREGVAALYTHTGNTYYTDSVKGRFTISQDKAKNMAYLRMDSVKSEDTAIYTCGATRKYVPVRFALDQSSYDYWGQGTQVTVSSGGGGSGGGGSGGGGSQVQLVESGGGSVQAGGSLRLSCAASGSTDSIEYMTWFRQAPGKAREGVAALYTHTGNTYYTDSVKGRFTISQDKAKNMAYLRMDSVKSEDTAIYTCGATRKYVPVRFALDQSSYDYWGQGTQVTVSS
notes: Three anti-HEWL VHHs in the VHH-Fc-VHH-VHH format; negative control for KC036
binding result [3]: no binding
